Values of other authors as cited in publication PMC11591972.

Target: Vm24 (Vaejovis mexicanus smithi) (UniProt P0DJ31)
UniProt P0DJ31, sequence (P0DJ31 whole entry): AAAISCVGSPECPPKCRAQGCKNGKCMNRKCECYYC

## Kv1.3 (from UniProt P22001)
  Kd: 3 pM
